The target in assay [1] is pMHC-E6, HLA-A*02:01-[…] monomer (refolded, soluble) (human; human papillomavirus (HPV)).
Assay [2] has as its target T1, E7 peptide (…) in complex with HLA-A*02:01 on T2 cells (human; human papillomavirus (HPV)).
T1 construct: whole, on cells
Nature of the assay: FACS on 293E7 cells, APC-anti-Flag; nanobody concentration not given.

Numbering of substitutions follows the chain as printed.

B1: single-domain antibody F5 (camel VHH nanobody) (VHH)
VHH: EVQLVESGGGSVQAGGSLRLSCAASGFTFSNNRMGWVRQAPGKGLEWVSDINSSGGVTEYADSVKGRFTISRDNAKNTLYLQLNSLKIEDTAIYYCVYYSYLMRLRPGQGTQVTVSS
notes: also called VHH F5; nanobody F5
Molecule B1 showed a Kd in assay [1] of 1500 nM. In addition, the binding result in assay [2] is given as “no binding”.

B2: single-domain antibody G9 (camel VHH nanobody) (VHH)
VHH: B1 VHH with S11L, A14P, A23V
notes: also called nanobody G9
B2: the binding result in assay [2] is listed as “no binding”.

In general, Kd refers to a measure of binding affinity in units of concentration.

Values taken from US20260070960A1 (US Dept. of Health and Human Services, published 2026).
